The assay concerns the target ClC-ec1 C85A/H234C labelled with Cy5 (WT-Cy5) (Escherichia coli) (UniProt P37019). The assay is described as follows: single-molecule photobleaching of subunits captured into liposomes (TIRF); high-density proteoliposomes (χ = 7.5 × 10^-6 subunit/lipid) diluted 10X to 1000X by freeze/thaw fusion with empty 2:1 POPE/POPG vesicles, incubated at room temperature, time course after freeze/thaw.

The results in this text go back to publication PMC5010387.

As for “ClC-ec1 C85A/H234C labelled with Cy5 (WT-Cy5) (from UniProt P37019 1-473) (natural protein)”, the mid-point of the convergence of the 1000X diluted sample to the reconstituted probabilities is 13 days.
